For assay [1], the target named is T1, GMPCPP-stabilized microtubules (porcine, UniProt P02554 1-445).
T1 construct: Polymer of tubulin heterodimers; in TIRF partly labeled with X-rhodamine/HiLyte 647 and biotin; also called MT; GMPCPP-microtubule lattice
Nature of the assay: TIRF microscopy, GFP intensity on microtubules, no Gli2-ZF.

The next assay concerns the target T2, Gli2-ZF-SNAP (human, UniProt P10070 418-604, Alexa 647 dye on the SNAP tag in the TIRF assays).
T2 construct: Labeled with Alexa 647 for TIRF microscopy; used unlabeled (as far as told) for cryo-EM; also called Gli2-ZF-SNAP-Alexa 647; Gli2-ZF-Alexa 647; not shown: C-terminal SNAP tag
T2 sequence (looked up): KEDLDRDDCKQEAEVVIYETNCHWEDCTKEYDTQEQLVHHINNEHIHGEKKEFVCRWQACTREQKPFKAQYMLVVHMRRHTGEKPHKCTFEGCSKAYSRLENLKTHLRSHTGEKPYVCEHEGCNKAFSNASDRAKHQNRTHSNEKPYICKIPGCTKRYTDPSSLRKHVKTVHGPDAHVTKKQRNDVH
Nature of the assay: TIRF microscopy; 100 nM Gli2-ZF-SNAP-Alexa647 with 100 nM kinesin on microtubules. From the text:
Briefly, fluorescently labeled (Rhodamine/HiLyte-647) and biotinylated microtubule seeds, polymerized with the non-hydrolyzable GTP analog GMPCPP, were immobilized on a glass coverslip through neutravidin-biotin linkages (FIG. 4A). GMPCPP was chosen as it mimics the GTP-form of tubulin present at microtubule ends (Jiang et al., Developmental cell, 49, 711-730. e8 2019). […] A Gli2 control was used to measure non-specific binding of Gli2-ZF to microtubules. Single molecule photobleaching of purified Kif7-DM confirmed that it is a dimer (FIGS. 11A-D).
To address which of the two Gli-interaction sites of Kif7 plays a role in modulating Kif7 microtubule binding, we generated two chimeric proteins where we swapped either the motor and neck-linker (M) or the coiled-coil (CC) domains of Kif7 and Kif27 (Kif7M-Kif27CC and Kif27M-Kif7CC) (FIG. 5E). […] The binding affinity for each of the two Gli interaction sites on Kif7-DM could be determined using BLI (FIG. 12H). We compared the two chimeras to Kif7-DM in TIRF microscopy-based microtubule binding assay. […] Next, we compared how the microtubule binding of the chimeras were regulated by Gli with respect to Kif7-DM.

Assay [2] deals with T3, Gli2-ZF (418-604aa; zinc finger domain of Gli2) (human, UniProt P10070 418-604).
T3 construct: Expressed with an HRV-cleavable N-terminal 6xHis tag, cleaved 'if needed'; also called Gli-ZF
T3 sequence (looked up): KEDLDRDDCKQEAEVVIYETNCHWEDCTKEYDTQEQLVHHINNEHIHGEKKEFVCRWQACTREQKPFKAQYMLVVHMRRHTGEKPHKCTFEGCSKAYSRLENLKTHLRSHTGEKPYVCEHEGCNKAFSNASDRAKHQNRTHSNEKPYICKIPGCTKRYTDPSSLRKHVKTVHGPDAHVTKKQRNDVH
Nature of the assay: BLI; GST-Kif7-SCC on sensor, Gli2-ZF as analyte, Hill fit. For orientation: BLI is a label-free optical method that tracks binding on a fibre tip over time.

The target in the next assay is T4, GST-Kif7-CC-GFP (human, UniProt Q2M1P5 460-600).
T4 construct: also called GST-tagged Kif7-CC-GFP; not shown: N-terminal GST tag; GFP tag, C-terminal by the name
T4 sequence: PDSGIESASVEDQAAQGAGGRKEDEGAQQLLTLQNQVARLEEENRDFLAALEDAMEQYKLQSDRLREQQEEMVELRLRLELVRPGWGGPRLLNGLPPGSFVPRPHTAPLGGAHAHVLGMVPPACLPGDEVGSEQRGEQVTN
Nature of the assay: SDS-PAGE and in-gel GFP fluorescence intensity of the size exclusion fraction holding the Kif7-CC-GFP:Gli2-ZF-GFP complex; confirmed by quantitative anti-GFP western blot. The method, then:
To determine the stoichiometry of the complex (whether one Kif7-CC dimer bind one or two molecules of monomeric Gli2-ZF), we used fluorescence intensity analyses. […] The complex was analyzed by two methods. […] Second, quantitative western blot with fluorescently labeled anti-GFP antibody and densitometric analysis independently confirmed the stoichiometry of the complex (FIG. 8F).
The Kif7-CC and Kif7-DM proteins were not amenable to dynamic light scattering analysis and so in order to determine the stoichiometry of the Kif7-Gli2 complexes, we purified GFP-tagged constructs of Kif7-DM, Kif7-CC, and Gli2-ZF. […] After incubation, 200 μL of this mix was injected into a Superdex 200 10/300 GL column. Fractions that contained complexed protein were determined by elution volume shift in the gel filtration chromatogram. Complex containing fractions were boiled and run in SDS-PAGE and quantified in two ways: (1) Scan of an unstained SDS-PAGE gel at 488 nm, and (2) Scan of a Western blot using a directly labeled […] anti-GFP antibody (Santa Cruz). Both methods were quantified using an Amersham™ Typhoon Scanner and ImageJ for intensity analysis.
In general terms: SEC sorts molecules by how far they enter the pores of the column.

T1 sequence (P02554 whole entry): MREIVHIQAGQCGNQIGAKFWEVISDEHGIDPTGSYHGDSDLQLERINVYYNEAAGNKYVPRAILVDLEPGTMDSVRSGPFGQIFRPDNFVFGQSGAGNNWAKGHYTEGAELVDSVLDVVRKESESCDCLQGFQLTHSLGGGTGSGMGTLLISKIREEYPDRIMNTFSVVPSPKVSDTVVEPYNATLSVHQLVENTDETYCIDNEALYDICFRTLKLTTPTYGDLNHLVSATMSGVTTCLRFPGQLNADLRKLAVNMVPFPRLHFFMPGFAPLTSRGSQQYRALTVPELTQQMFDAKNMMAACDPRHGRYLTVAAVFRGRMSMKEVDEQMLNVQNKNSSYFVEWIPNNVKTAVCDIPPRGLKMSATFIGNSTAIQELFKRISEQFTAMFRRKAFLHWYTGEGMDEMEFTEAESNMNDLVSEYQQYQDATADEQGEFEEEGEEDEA

B1: Kif27M-Kif7CC chimera (other, human)
chain: MEEIPVKVAVRIRPLLCKEALHNHQVCVRVIPNSQQVIIGRDRVFTFDFVFGKNSTQDEVYNTCIKPLVLSLIEGYNATVFAYGQTGSGKTYTIGGGHIASVVEGQKGIIPRAIQEIFQSISEHPSIDFNVKVSYIEVYKEDLRDLLELETSMKDLHIREDEKGNTVIVGAKECHVESAGEVMSLLEMGNAARHTGTTQMNEHSSRSHAIFTISICQVHKNMEAAEDGSWYSPRHIVSKFHFVDLAGSERVTKTGNTGERFKESIQINSGLLALGNVISALGDPRRKSSHIPYRDAKITRLLKDSLGGSAKTVMITCVSPSSSNFDESLNSLKYANRARNIRNKPTVNFSPESDRIDEMEFEIKLLREALQSQQAGVSQTTQINREGSPDTNRIHSLEEQVAQLQGECLGYQCCVEEAFTFLVDLKDTVRLNEKQQHKLQEWFNMIQEVRKAVLTSFRGIGGTASLEEGPQHVTVPDSGIESASVEDQAAQGAGGRKEDEGAQQLLTLQNQVARLEEENRDFLAALEDAMEQYKLQSDRLREQQEEMVELRLRLELVRPGWGGPRLLNGLPPGSFVPRPHTAPLGGAHAHVLGMVPPACLPGDEVGSEQRGEQVTN
notes: range 1-475; not shown: HIS tag (used for BLI); GFP tag
As to B1, the “fold binding to microtubules compared to Kif7-DM (GFP intensity)” value in assay [1] is roughly 3 fold. For the same molecule, in the assay with Gli2-ZF-SNAP, the “fold decrease in Gli recruitment on microtubules compared to Kif7-DM (Alexa-647 intensity per GFP intensity)” value was 2 fold.

B2: Kif7M-Kif27CC chimera (other, human)
chain: MGLEAQRLPGAEEAPVRVALRVRPLLPKELLHGHQSCLQVEPGLGRVTLGRDRHFGFHVVLAEDAGQEAVYQACVQPLLEAFFEGFNATVFAYGQTGSGKTYTMGEASVASLLEDEQGIVPRAMAEAFKLIDENDLLDCLVHVSYLEVYKEEFRDLLEVGTASRDIQLREDERGNVVLCGVKEVDVEGLDEVLSLLEMGNAARHTGATHLNHLSSRSHTVFTVTLEQRGRAPSRLPRPAPGQLLVSKFHFVDLAGSERVLKTGSTGERLKESIQINSSLLALGNVISALGDPQRRGSHIPYRDSKITRILKDSLGGNAKTVMIACVSPSSSDFDETLNTLNYASRAQNIRNRATVNWRPEAERPPEETASGARGPPRHRSETRIIHRGRRAPGPATASAAAAMRLGAECARYRACTDAAYSLLRELQAEPGLPGAAARKVRDWLCAVEGERSALSSASGPDSVLQLKRELKKCQCVLAADEVVFNQKELEVKELKNQVQMMVQENKGHAVSLKEAQKVNRLQNEKIIEQQLLVDQLSEELTKLNLSVTSSAKENCGDG
notes: range 475-570; not shown: HIS tag (used for BLI); GFP tag
With B2, the “fold binding to microtubules compared to Kif7-DM (GFP intensity)” value in assay [1] was roughly 10 fold. The “fold decrease in Gli recruitment on microtubules compared to Kif7-DM (Alexa-647 intensity per GFP intensity)” value with Gli2-ZF-SNAP is 3 fold.

B3: GST-Kif7-SCC (481-543aa) (other)
chain: KEDEGAQQLLTLQNQVARLEEENRDFLAALEDAMEQYKLQSDRLREQQEEMVELRLRLELVRP
notes: The limits of the results section are used; also called shorter coiled-coil segment of Kif7-CC; not shown: GST tag, by the name GST-Kif7-SCC
A word on the Kd: it is the concentration at which binding is half-saturated. High values mean lower affinity, low ones higher affinity. For the molecule B3, the dissociation constant Kd in assay [2] worked out at 69 nM.

B4: Gli2-ZF-GFP (other, human, UniProt P10070 418-604, looked up)
chain: KEDLDRDDCKQEAEVVIYETNCHWEDCTKEYDTQEQLVHHINNEHIHGEKKEFVCRWQACTREQKPFKAQYMLVVHMRRHTGEKPHKCTFEGCSKAYSRLENLKTHLRSHTGEKPYVCEHEGCNKAFSNASDRAKHQNRTHSNEKPYICKIPGCTKRYTDPSSLRKHVKTVHGPDAHVTKKQRNDVH
notes: HRV-cleavable N-terminal 6xHis tag in the vector; not shown: C-terminal GFP tag
Regarding B4, the stoichiometry of interaction in the assay with GST-Kif7-CC-GFP is 0.5 Gli2-ZF molecules per Kif7-CC chain (1:2, one Gli2-ZF monomer per Kif7-CC dimer).

The record behind these values is patent US20230374088A1 (GENERAL HOSPITAL, published 2023).
